# T1: DNA polymerase kappa core (hpol κ19-536) (Homo sapiens, UniProt Q9UBT6 19-536)
# T1 sequence: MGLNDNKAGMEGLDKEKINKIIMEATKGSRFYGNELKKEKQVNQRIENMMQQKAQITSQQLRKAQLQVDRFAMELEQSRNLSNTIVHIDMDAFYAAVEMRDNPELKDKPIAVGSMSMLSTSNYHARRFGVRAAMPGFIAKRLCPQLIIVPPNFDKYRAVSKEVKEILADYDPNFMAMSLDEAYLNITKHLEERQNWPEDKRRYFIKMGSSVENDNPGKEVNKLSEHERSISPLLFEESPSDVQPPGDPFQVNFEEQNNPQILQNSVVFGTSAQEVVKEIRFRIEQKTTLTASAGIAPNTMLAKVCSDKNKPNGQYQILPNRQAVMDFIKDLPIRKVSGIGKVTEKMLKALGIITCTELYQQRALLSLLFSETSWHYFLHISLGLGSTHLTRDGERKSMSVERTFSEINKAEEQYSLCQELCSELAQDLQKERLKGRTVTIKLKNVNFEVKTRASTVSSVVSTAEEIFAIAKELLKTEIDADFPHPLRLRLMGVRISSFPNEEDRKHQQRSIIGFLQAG
# Target: T1, DNA polymerase kappa core (hpol κ19-536)
# Assay: fluorescence polarization
row,Binder,Kd
1,11/28-mer non-G4 DNA (mixed) DNA 1: ATCCTCCCCTA DNA 2: TATGTGACTATGCTGGGTAGGGGAGGAT,86 nM
2,11/28-mer G4 DNA (mixed) DNA 1: ATCCTCCCCTA DNA 2: TGGGTGGGTAGGGTGGGTAGGGGAGGAT,15 nM

# Source: article PMC5113810
